Protein production data for 12 sequences are collected here from a protein production outcome set (Wang et al. 2014).

A short description of the data set: label from the status in PepcDB records.
Turning to “MKSTAEYLEDPEQAADRALSLLQDLGGLSAAAAWGRSGVMWRRLAGFGDLAGLPDGAALAAGERPPAGGAMAMRAGDGALGWLAWQGKPPGQMETVAELLAGHLQCEALRAEQAATRVANETMLEISLLAGECPTLDRLLPRLHRLMQRLMDADNFYIALCGDDRSTLSFPFYADRREASPPDPERAFPIAGPDVSLTAWLIRGGAPMVLTGERIEALCRQEALARPANLPAFWMGAPLRNAADELIGAAVLQRYDDQPPLTSAEQLLFMFAARHVGFALDRVLYHRRLERQVALRTSELEGANARLRAEVASRKRAEKFQDVLFRIAELSNTSLSLEAFLSGLHRLLLEMVAARNCVVALYDMGSDLISFPYCADEYAPALKPRKPGKGLIEQVLHSGRPLLLDPYGSLQGMAAAEGATPPKSWLGVPLYCDHELLGVLAVQSYDGDVVYGYRDQEVLEFVANHIGTALARVRALESLQHAYADLEQRVRERTSELDAVNAQLEFDSLHDPLTKLPNRNYFSKALRRAWDAYLDGGDRFAVVFIDLDRFKLVNDTLGHLAGDHLLFEAGARIRSCLRHYDFLARLGGDEFAVLMFGMDAVDECEVIARRIVSEFERPVVLAGREVFSTASVGVVLADSEHYHKADDLLRDADHAMYCTKQQGRQGYTLFSHQLRIDQADQLALETELRRALEEEGQLVPYYQPFIAAATGALAGFETLVRWQHPQRGLVSPGVFLPVAEESGLITRLDRYMINAACAQLQAWRAEGRVGEGIALHINLSSANFRDPDLVGWIGERIAHYRLPPAMLHLEITESALIDQPEAAATAMQALHGLGVRLALDDFGTGYSALSYLHRYRFDVLKIDQSFVFDLDRKQESVAIVRAILALARALDLEVVAEGVETASQSAMLKEMGCGMLQGFHFAAPAPAWALDWDKLARFAEGPGRVA”, the protein production result was “failed”.

Consider “MKSTLIVIGNIILVILILFIYTMLWYYIGAKGKGIIFGVNLRKKEGLKAVAYWGIFWFLAFSFILSVASRSTISINNKITGILTYLGAISLALFCYLIIIFPITDLIRFILNKLGFSGSLREYMSIIYGRGISIFIAVIIIILFGFWHAIHQTTTNYNISINKKAGKLKQLNVVMVSDVHMGIMIRERGIDKLVTSINKLKPDVVFFCGDMVDESTPTSLEKYYSSAFKEIISKYGVYAITGNHEYATQNSEVAMNYMKKADIKVLEDKAVKVDNSFYVIGRNDAAGGKVKPLNEIMKNADKRLPIIALNHRPVALEEAEKNGVDLQLSGHTHEGQIFPFNFTTKLVFEDDYGYLKKKDFNLIVTSGYGTWGPPIRIGTKGEIVNIKIDFMN”, for which the protein production entry is given as “failed”.

Regarding “MKTAKRRAFAFATFAIAGLAACENTSSPSLPKDQVMAPGVDLRAAAKQDSSEAVEAGHRMIAAGEYELALRAFNRAALSRGALDAEILSGLGTANLGLGRLGQAEELLRRAVRDDAAQPVDYNNLGVLLMEQGNTAEALQYFRRAFALSNGENIAIRDNLRLALAKTENSATLEAEKSSEYKLVRRGNSDFVIRPTP”, the protein production result is reported as “failed”.

Consider “MKTDFSLTQLADPDIAEADKILRACVHCGFCTATCPTYVLLGDELDSPRGRIYLIKEMLESDKPPTADVVKHIDRCLSCLACMTTCPSGVNYMHLVDQARVRIEKQYQRPFWDRVVREALSWMMPHPGMFRLGMWAARIVRPVAALLPGSHNLTHPTLLSRIKAMLALAPKHLPEPGPDSGTTFPAVGPKRGRVALLHGCAQQVLAPRINRAAINLLTRHGIEVVLAADEACCGALIHHLGRDTRTLEYARTNIKAWLAEIERGGLDAILVTTSGCGTVIKDYGYMLREDPEYAAAAAKVSALAKDISEYVSGLELSLPRPHDDVVVAYHSACSLQHGQKITQIPKELLSKTGFVVKDIPESHLCCGSAGTYNILQPDIATRLRDRKVANIASVKPDMIAAGNIGCMVQIASGTEVPVVHTIELLDWATGGPRPAPH”, for which the protein production entry was “failed”.

Regarding “MKTGKELKPGTVIRIDNDPWLVQKAEFTKSGRNSAIMKTKLKNLLTGYKTETVYGADDKLDDVILDRKEATLSFISGDTYTFMDTTDYTMYELNAEDIEAVLPFIEEGMTDVCEAVFFEDRLVSVDLPTTIVRQVDYTEGSARGDTSGKVMKPAKLKNGTELSVADFIEIGDMIEIDTREGGSYKGRAKV”, the protein production entry is given as “failed”.

As for “MKTGNLNPAPQQVTAPQNKARMDWPDIAKGISILGVVLLHVSLAIPGGQDTMMSHLNALLDPLRMPLFFMVSGFFAVKVLNQSFGELFRGRLWFYLVPYLLWTPVNLYLHRLEGTVFTGRAPGTWEWYSGSMLSATNMYWFLYFLVIFNLFLWATRKLPAWAIVALVASLWLLMPAYSEIEILRKSIIYLPTFLIGAYFRPLISRFAEAATRPKAIVFAAVLYVSGLALGVISNGLRDSENHGASVLWLMNLRDTFAHALGGNLTGFDMDHLPGMIIRIVSLPAGIVLCVWLGRIKPVGEFLKLIGRHTLPIYIGHATGLSLIFGFGLRWNFMEIDNFSDSLWHHTNTWMVIAFACAMLGGYLTYLISRVPVLGWTLVPPKLPEPDKTPAKAQADSHVKAQSAKPMNASTSSKTYGI”, the protein production result was “failed”.

With “MKTIEIFDPAMCCPTGLCGTNINPELMRIAVVIETLKRQGVVVTRHNLRDEPQVYVSNKTVNQYLQKNGAEALPITLVDGEIAVSKDYPTTKQMSEWTGINLD”, the protein production entry is “not failed”.

Regarding “MKTIHIYTNGRFEEKQSGIVREFPLVLHVNGREIATLISSPHDLRFLVAGFLRNQGFVERAEDFHMLAVCDDFGIANARIRGELPERLKPVLTSGCGTGVTFTLETPKIPPPLALPAITTDAVFRLMEELARRADNYRSHGGIHSAAVGDGEGNLLLFAEDIGRHNTLDRIAGEALFKGIDLAGTILVTSGRVSTEMAAKCARLGIALIASRTSATDMAVKMCDEAGIPLIGYVRGGKFTVYAHHERLAMAPPVGAIHELPLPASAQGRRIPGITGVILAGGQSRRMGSNKALLPYKGGRFIEAIHRQLAEIFDEVLLVTNNPEQYDFLPCRKVADIHPGMGALAGIHAGLHHAANPAAFMVACDMPYLNSDLIRHLATLADPGGVLIPESPAGLEPLHAVYGKGCLAAIETTLLSGERRIVSFFGRTNVNRVNAEQVALFDPDYATFSNINTPVDYYRLRDGERDELDAALGADRIAGLEHHHHHH”, the protein production entry is “failed”.

For the sequence “MKTIIRQPQLYRFLKYCNESNLDKTVLDCGAGGDLPPLSIFVEDGYKTYGIEISDLQLKKAENFSRENNFKLNISKGDIRKLPFKDESMSFVYSYGTIFHMRKNDVKEAIDEIKRVLKPGGLACINFLTTKDERYNKGEKIGEGEFLQLERGEKVIHSYVSLEEADKYFKDMKVLFKEDRVVERINDGLKIKQGYVDYIAEKFSKSIL”, the protein production entry is recorded as “not failed”.

For the sequence “MKTKGWGALAVLPLALALAGNVAAEEVKGKVKTVSVKAGQISLTVESKGVMLFRVTDGTTFANAASIREIHADDLLQVDYRVDGFDNVAKAVAKVVAKLPEGVTAMDTRELEALVAKGTEEGGYLLIDSRPAGKYNEAHIPTAVSIPFAELEKNPALLTASKDRLLVFYCGGVTUVLSPKSAGLAKKSGYEKVRVYLDGEPEWKKAELPLESSLAFVEKGNIVLIDLRSPEKVAAGHIPGAVGIPAADLAAAQAKFPAYRGAHLVFYSDSAEDLSQALELARDWNYKNATIFPGGIGAWQKAGKHLKTGAAAATVTYVKKLAPGEVGTEDFQAALKDGRTVVIDARAPGEFEKGHFKGAVNIPAEEAAKRLAEIPADRPVLVHCSTGTRAEMVYDLVKDKGYNLKYLKAGVEFAADGSYTISE”, the protein production entry is “failed”.

In the case of “MKTLCTHSLPKEKMPYLLRSGEGERYLFGRQVATVMANGRSTGDLFEIVLLSGGKGDAFPLHVHKDTHEGILVLDGKLELTLDGERYLLISGDYANIPAGTPHSYRMQSHRTRLVSYTMKGNVAHLYSVIGNPYDHAEHPPYASEEVSNERFAEAAAVADIVFLDEAKPACSAKLAELTELPDGAVPYVLESGEGDRLLTGDQLHRIVAAQKNTDGQFIVVSSEGPKGDRIVDHYHEYHTETFYCLEGQMTMWTDGQEIQLNPGDFLHVPANTVHSYRLDSHYTKMVGVLVPGLFEPFFRTLGDPYEGHIFPCEPQALRFDRILQNIEALDLKVMKP”, the protein production entry is on record as “not failed”.

Turning to “MKTLFSIYLFLSLNPLFLEANEITWSKFLENFKNKNDDDKPKPLTIDKNNEKQQILDKNQQILKRALEKSLKFFFIFGYNYSQATFSTSNQTLTFVANSIGFNTATGLEHFLRNHPKVGFRIFSVYNYFHSVSLSQPQTLMVQNYGGALDFSWIFVDKNIYRFRSYLGIALEQGVLLVDTIKPGAITTIIPRTKKTFFQAPLRFGFIVDFIGYLSLQLGIEMPLVRNVFYTYNNHQERFKPRFNANLSLIVSF”, the protein production result is on record as “failed”.
